Article PMC5015938, “A Split-Ubiquitin Based Strategy Selecting for Protein Complex-Interfering Mutations” (G3: Genes|Genomes|Genetics, 2016)
Residue numbers refer to the chain shown, from its start.

Assays:
PB_(Cdc24) = target: T1, PB_(Cdc24) (Saccharomyces cerevisiae, UniProt P11433 668-854); experiment: SPR; Biacore X100; PB_(Bem1)-SNAP labelled with BG-Biotin and captured on a CM5 chip coated with anti-biotin antibody; PB_(Cdc24) as analyte; HBSEP (10 mM HEPES, 150 mM NaCl, 3 mM EDTA, 0.05% Tween 20, pH 7.4); conditions: both partners purified
T1 construct: also called Cdc24 PB domain; source: E. coli BL21DE3, purified (IMAC, optional size exclusion chromatography)
T1 sequence (looked up): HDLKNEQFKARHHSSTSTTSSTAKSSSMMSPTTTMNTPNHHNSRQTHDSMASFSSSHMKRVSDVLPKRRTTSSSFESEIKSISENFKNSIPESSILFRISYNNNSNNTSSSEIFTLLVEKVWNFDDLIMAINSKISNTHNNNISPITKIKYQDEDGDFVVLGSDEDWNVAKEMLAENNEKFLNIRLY

PB_(Cdc24)(D833G) = target: T2, PB_(Cdc24)(D833G) (Saccharomyces cerevisiae, UniProt P11433 668-854, D833G); experiment: as above; conditions: both partners purified
T2 construct: also called D833G mutant; source: E. coli BL21DE3, purified (IMAC, optional size exclusion chromatography)
T2 sequence (looked up): T1 sequence (looked up) with D166G

B1: PB_(Bem1)-SNAP (domain or fragment, Saccharomyces cerevisiae, UniProt P29366 431-551, looked up)
chain: ASQTSNFASTNQDNTLTGEDLKLNKKLSDLSLSGSKQAPAQSTSGLKTTKIKFYYKDDIFALMLKGDTTYKELRSKIAPRIDTDNFKLQTKLFDGSGEEIKTDSQVSNIIQAKLKISVHDI
modifications: BG-Biotin covalently on the SNAP tag
notes: Bem1, S. cerevisiae, PB domain, residues 431-551; also called Bem1 PB domain; source: E. coli BL21DE3, purified (IMAC, optional size exclusion chromatography)
- Kd (PB_(Cdc24)): 21 nM
- Kd (PB_(Cdc24)(D833G)): > 3200 nM
